# In paper PMC4980433 (Molecular Cell, 2016):
# B1: TNKS SAM domain (1,018-1,093), wild type [human] / itself (parent)
# chain: ERKEGEVAGLDMNISQFLKSLGLEHLRDIFETEQITLDVLADMGHEELKEIGINAYGHRHKLIKGVERLLGGQQGT
# Variants of: B1
# Assay: SEC-MALS
# Settings: with itself; 0.5 mM; n = 2
row,screen value,Variant
1,10.6 kDa,ERKEGEVAGLDMNISQFLKSLGLEHLRDIFETEQITLDWLADMGHEELKEIGINAYGHRHKLIKGVERLLGGQQGT [chain 1 V39W]
2,10.4 kDa,ERKEGEVAGLDMNISQFLKSLGLEHLRDIFETEQITLDVLADMGHEELKEIGINAAGHRHKLIKGVERLLGGQQGT [chain 1 Y56A]
3,9.3 kDa,ERKEGEVAGLDMNISQFLKSLGLEHLRDIFETEQITLDWLADMGHEELKEIGINAAGHRHKLIKGVERLLGGQQGT [chain 1 V39W Y56A]
